# In publication PMC2965237:
# B1: RGL13/17 (dsDNA)
# DNA 1: GACGCTGCCGAATTCTGGCTTGCTAGGACATCTTTGCCCACGTTGACCC
# DNA 2: GGGTCAACGTGGGCAAAGATGTCCTAGCAAGCCAGAATTCGGCAGCGTC
# Assays:
# Assay in all cases: EMSA
# RdgC H222A = RdgC H222A (Escherichia coli, UniProt P36767 1-303, H222A)
# RdgC E218R = RdgC E218R (Escherichia coli, UniProt P36767 1-303, E218R)
# RdgC R118A = RdgC R118A (Escherichia coli, UniProt P36767 1-303, R118A)
# RdgC R118C = RdgC R118C (Escherichia coli, UniProt P36767 1-303, R118C)
# RdgC F120T K227A = RdgC F120T K227A (Escherichia coli, UniProt P36767 1-303, F120T;K227A)
# RdgC Δfinger R118C = RdgC Δfinger R118C (Escherichia coli, UniProt P36767 1-303, P76G;L116T;R118C;del77-115)
Binder,Kd (RdgC H222A) [nM],Kd (RdgC E218R) [nM],Kd (RdgC R118A) [nM],Kd (RdgC R118C) [nM],binding result (RdgC F120T K227A),Kd (RdgC Δfinger R118C) [nM]
B1,12,22,6,6,,
GACGCTGCCGAATTCTGGCTTGCTAGGACATCTTTGCCCACGTTGACCC (ssDNA) [RGL13],5,,6,6,no binding,~6000
